Blank lines part the entries; values can stand above or below the substance they belong to.
Columns and labels:
[1] = biological target: Lge1-CT D287K (budding yeast) (UniProt Q02796); assay: SPR; Lge1-CT immobilised on a CM5 chip, Bre1-LR flown over; Biacore 8K, 25°C, 20 mM HEPES (pH 7.5), 200 mM sodium chloride, 0.02% Tween 20
[2] = biological target: Lge1-CT D312K (budding yeast) (UniProt Q02796); assay: as above
[3] = biological target: Lge1-CT E278K/E282K (budding yeast) (UniProt Q02796); assay: as above
[4] = biological target: Lge1-CT (Lge1 residues 261–332), intein-chitin binding domain (CBD) tag construct (budding yeast) (UniProt Q02796); assay: as above
[5] = biological target: Bre1-LR I397K (budding yeast) (UniProt Q07457); assay: ITC; Lge1-CT (50–60 μM) injected into Bre1-LR (15 μM); 25°C, 20 mM TRIS (pH 7.5), 200 mM sodium chloride
[6] = biological target: Bre1-LR K506E/K510E (budding yeast) (UniProt Q07457); assay: as above
[7] = biological target: Bre1-LR K506E/K510E (budding yeast) (UniProt Q07457); assay: ITC; Lge1-CT (50–60 μM) injected into Bre1-LR (15 μM); 25°C, 20 mM TRIS (pH 7.5), 300 mM sodium chloride

Kd [1]: 145 nM | Kd [2]: 25.3 nM | Kd [3]: 95.6 nM
Substance: Bre1-LR (Bre1 residues 227–700, LBD and RING domains), 6× histidine tag (from UniProt Q07457 227-700) (domain or fragment)

Kd [4]: 75.5 nM
Substance: Bre1-LR D389K/D390K (from UniProt Q07457 227-700) (domain or fragment)

Kd [4]: 40.7 nM
Substance: Bre1-LR I397K (from UniProt Q07457 227-700) (domain or fragment)

Kd [5]: 122 nM | dH [5]: -41.3 kcal/mol | stoichiometry N [5]: 0.18 | Kd [6]: 41.9 nM | dH [6]: -35.2 kcal/mol | stoichiometry N [6]: 0.383 | Kd [7]: 6720 nM | dH [7]: -80 kcal/mol | stoichiometry N [7]: 0.474
Substance: Lge1-CT (Lge1 residues 261–332), intein-chitin binding domain (CBD) tag construct (from UniProt Q02796 261-332) (domain or fragment)

— article PMC12802937
